Laboratory results as given in patent US20030148956A1 (PROCTER AND GAMBLE, published 2003).
Ends that are not written are not given here.

T1: CRF2R
T1 sequence (Q13324 whole entry, species assumed, looked up): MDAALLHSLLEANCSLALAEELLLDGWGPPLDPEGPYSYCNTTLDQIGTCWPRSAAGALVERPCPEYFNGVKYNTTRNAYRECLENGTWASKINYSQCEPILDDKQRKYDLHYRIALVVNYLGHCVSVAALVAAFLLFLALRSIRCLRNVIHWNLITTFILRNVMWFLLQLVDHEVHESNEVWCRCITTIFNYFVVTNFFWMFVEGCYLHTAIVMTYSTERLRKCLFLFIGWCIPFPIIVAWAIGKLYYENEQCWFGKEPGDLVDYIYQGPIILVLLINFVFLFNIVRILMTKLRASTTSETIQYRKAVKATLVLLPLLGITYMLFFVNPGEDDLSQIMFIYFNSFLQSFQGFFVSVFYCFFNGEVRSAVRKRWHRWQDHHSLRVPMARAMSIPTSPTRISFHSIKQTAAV


Legend:
[1] = target: T1, CRF2R; experiment: cell-based or functional assay
[2] = target: CRF1R; experiment: cell-based or functional assay

| CRF2R EC50 [1] [nM] | CRF1R EC50 [2] [nM] | CRF2R Emax [1] [%] | CRF1R Emax [2] [%] | Binder |
| --- | --- | --- | --- | --- |
| 9.41 | 100 |  |  | IVLSLDVPIGLLQILLEQTKARAAREQATTNARILARV-NH2 [SEQ ID NO 117] |
| 3.31 | 1000 | 97 | 10.7 | IVLSLDVPIGLLQILLEQARAEAAREQATTNARILARV-NH2 [SEQ ID NO 122] |
| 100 | 100 | 12.5 | 16.3 | SQEPPISLDLPFYLLREVLEMTKADQLAQQAHSNRKLLDIA-NH2 [SEQ ID NO 96] |
| 100 | 100 | 34 | 10 | IVLSLDVPIGLLQILLEQARARAAREQATTQARILARV-NH2 [SEQ ID NO 9] |
| 100 | 100 | 12.2 | 4 | SQEPPISLDLPLGLLREVLEMTKADQLAQQAHSNRKLLDIA-NH2 [SEQ ID NO 90] |
| 100 | 100 | 4.35 | 4.35 | SQEPPISLDLPTHLLREVLEMTKADQLAQQAHSNRKLLDIA-NH2 [SEQ ID NO 99] |
| 100 | 100 | 6.1 | 4.8 | SQEPPISLDLPTYLLREVLEMTKADQLAQQAHSNRKLLDIA-NH2 [SEQ ID NO 106] |
| 100 | 100 | 26.4 | 4.8 | IVLSLDVPIGLLQILLEQTKANAAREQATTVARILARV-NH2 [SEQ ID NO 116] |
| 100 | 100 | 12 | 9 | IVLSLDVPGPLLQILLEQTKQEAAREQATTNARILARV-NH2 [SEQ ID NO 5] |
| 100 | 100 | 15.8 | 4.6 | SQEPPISLDLPTELLREVLEMTKADQLAQQAHSNRKIIDIA-NH2 [SEQ ID NO 92] |
| 100 | 100 | 9.15 | 5.2 | SQEPPISLDLPTQLLREVLEMTKADQLAQQAHSNRKLLDIA-NH2 [SEQ ID NO 105] |
| 100 | 100 | 19 | 4 | SQEIVLSLDVPIGLLREVLEMTKADQLAQQAHSNRKLLDIA-NH2 [SEQ ID NO 7] |
| 100 | 100 | 8.25 | 5.55 | SQEPPISLDLPLQLLREVLEMTKADQLAQQAHSNRKLLDIA-NH2 [SEQ ID NO 95] |
| 79 | > 100 | 97 | 3 | IVLSLDVPIGLLQILLEQTKADAAREQATTNARILARV-NH2 [SEQ ID NO 108] |
| 3.42 | > 100 | 100 | 6 | IVLSLDVPIGLLQILLEQARQRAAREQATTNARILARV-NH2 [SEQ ID NO 114] |
| 69.9 | 100 | 100 | 7 | IVLSLEVPIGLLQILLEQARARAAREQATTNARILARV-NH2 [SEQ ID NO 120] |
| 100 | 100 | 14.7 | 5.3 | SQEPPISLDLTIHLLREVLEMTKADQLAQQAHSNRKLLDIA-NH2 [SEQ ID NO 87] |
| 100 | 100 | 6.15 | 7.3 | SQEPPISLDLPIHLLREVLEMTKADQLAQQAHSNRKLLDIA-NH2 [SEQ ID NO 94] |
| 11.3 | > 100 | 98 | 4 | IVLSLDVPIGLLQILLEQERAEAAREQATTNARILARV-NH2 [SEQ ID NO 113] |

| CRF2R EC50 [1] [nM] | CRF1R EC50 [2] [nM] | CRF2R Emax [1] [%] | CRF1R Emax [2] [%] | Binder |
| --- | --- | --- | --- | --- |
| 100 | 100 | 13.5 | 7.8 | SQEPPISLDLPLHLLREVLEMTKADQLAQQAHSNRKLLDIA-NH2 [SEQ ID NO 102] |
| 11 | > 100 | 100 | 9 | IVLSLDVPIGLLQILLEQAKQRAAREQATTNARILARV-NH2 [SEQ ID NO 110] |
| 100 | 100 | 6.4 | 5 | SQEPPISLDLPIGLLREVLEMTKADQLAQQAHSNRKLLDIA-NH2 [SEQ ID NO 93] |
| 100 | 100 | 4.85 | 5.75 | SQEPPISLDLPFGLLREVLEMTKADQLAQQAHSNRKLLDIA-NH2 [SEQ ID NO 103] |
| 13.6 | > 100 | 98 | 7 | IVLSLDVPIGLLQILLEQEKQRAAREQATTNARILARV-NH2 [SEQ ID NO 115] |
| 11.8 | 100 |  |  | IVLSLDVPIGLLQILLEQAKARAAREQATTNARILARV-NH2 [SEQ ID NO 109] |
| 100 | 100 | 7.6 | 4.25 | SQEPPISLDLPFELLREVLEMTKADQLAQQAHSNRKLLDIA-NH2 [SEQ ID NO 97] |
| 100 | 100 | 4.5 | 11.1 | SQEPPISLDLPFHLLREVLEMTKADQLAQQAHSNRKLLDIA-NH2 [SEQ ID NO 104] |
| 10.9 | > 100 | 99 | 9 | IVLSLDVPIGLLQILLEQERQRAAREQATTNARILARV-NH2 [SEQ ID NO 111] |
| 100 | 100 | 5.5 | 4 | SQEPPISLDLPTGLLREVLEMTKADQLAQQAHSNRKLLDIA-NH2 [SEQ ID NO 98] |
| 9.72 | 928 | 91 | 73 | ZGPPISIDLPFQLLRKMIEIEKQEKEKQQATNNRLLLATV (C-terminal amide) [SEQ ID NO 12] |
| 100 | 100 | 7.1 | 4 | SQEPPISLDLPFQLLREVLEMTKADQLAQQAHSNRKLLDIA-NH2 [SEQ ID NO 91] |
| 100 | 100 | 9.85 | 6.25 | SQEPPISLDLPIQLLREVLEMTKADQLAQQAHSNRKLLDIA-NH2 [SEQ ID NO 100] |
| 100 | 100 | 12.6 | 11.2 | SQEPPISLDLTFGLLREVLEMTKADQLAQQAHSNRKLLDIA-NH2 [SEQ ID NO 88] |
| 14.6 | > 100 | 100 | 5 | IVLSLDVPIGLLQILLEQERQEAAREQATTNARILARV-NH2 [SEQ ID NO 118] |
| 100 | 100 | 6.95 | 7.35 | SQEPPISLDLPLYLLREVLEMTKADQLAQQAHSNRKLLDIA-NH2 [SEQ ID NO 101] |
| 3.57 | > 100 | 95 | 3 | IVLSLDVPIGLLQILLEQERARAAREQATTNARILARV-NH2 [SEQ ID NO 119] |
| 12.3 | > 100 | 100 | 10 | IVLSLDVPIGLLQILLEQAKAEAAREQATTNARILARV-NH2 [SEQ ID NO 112] |
